Like-named read-outs stand apart in the source and are kept apart here.

Test [1] concerns the target Chlamydomonas outer arm axonemal dynein, α and β HC complex from strain oda2-t-lc2-bccp (Chlamydomonas reinhardtii) (UniProt Q39565).
Test [2] shares this target. This is another data set of the same source.

Chain of UniProt Q39565 (Q39565 whole entry, looked up, one chain of several): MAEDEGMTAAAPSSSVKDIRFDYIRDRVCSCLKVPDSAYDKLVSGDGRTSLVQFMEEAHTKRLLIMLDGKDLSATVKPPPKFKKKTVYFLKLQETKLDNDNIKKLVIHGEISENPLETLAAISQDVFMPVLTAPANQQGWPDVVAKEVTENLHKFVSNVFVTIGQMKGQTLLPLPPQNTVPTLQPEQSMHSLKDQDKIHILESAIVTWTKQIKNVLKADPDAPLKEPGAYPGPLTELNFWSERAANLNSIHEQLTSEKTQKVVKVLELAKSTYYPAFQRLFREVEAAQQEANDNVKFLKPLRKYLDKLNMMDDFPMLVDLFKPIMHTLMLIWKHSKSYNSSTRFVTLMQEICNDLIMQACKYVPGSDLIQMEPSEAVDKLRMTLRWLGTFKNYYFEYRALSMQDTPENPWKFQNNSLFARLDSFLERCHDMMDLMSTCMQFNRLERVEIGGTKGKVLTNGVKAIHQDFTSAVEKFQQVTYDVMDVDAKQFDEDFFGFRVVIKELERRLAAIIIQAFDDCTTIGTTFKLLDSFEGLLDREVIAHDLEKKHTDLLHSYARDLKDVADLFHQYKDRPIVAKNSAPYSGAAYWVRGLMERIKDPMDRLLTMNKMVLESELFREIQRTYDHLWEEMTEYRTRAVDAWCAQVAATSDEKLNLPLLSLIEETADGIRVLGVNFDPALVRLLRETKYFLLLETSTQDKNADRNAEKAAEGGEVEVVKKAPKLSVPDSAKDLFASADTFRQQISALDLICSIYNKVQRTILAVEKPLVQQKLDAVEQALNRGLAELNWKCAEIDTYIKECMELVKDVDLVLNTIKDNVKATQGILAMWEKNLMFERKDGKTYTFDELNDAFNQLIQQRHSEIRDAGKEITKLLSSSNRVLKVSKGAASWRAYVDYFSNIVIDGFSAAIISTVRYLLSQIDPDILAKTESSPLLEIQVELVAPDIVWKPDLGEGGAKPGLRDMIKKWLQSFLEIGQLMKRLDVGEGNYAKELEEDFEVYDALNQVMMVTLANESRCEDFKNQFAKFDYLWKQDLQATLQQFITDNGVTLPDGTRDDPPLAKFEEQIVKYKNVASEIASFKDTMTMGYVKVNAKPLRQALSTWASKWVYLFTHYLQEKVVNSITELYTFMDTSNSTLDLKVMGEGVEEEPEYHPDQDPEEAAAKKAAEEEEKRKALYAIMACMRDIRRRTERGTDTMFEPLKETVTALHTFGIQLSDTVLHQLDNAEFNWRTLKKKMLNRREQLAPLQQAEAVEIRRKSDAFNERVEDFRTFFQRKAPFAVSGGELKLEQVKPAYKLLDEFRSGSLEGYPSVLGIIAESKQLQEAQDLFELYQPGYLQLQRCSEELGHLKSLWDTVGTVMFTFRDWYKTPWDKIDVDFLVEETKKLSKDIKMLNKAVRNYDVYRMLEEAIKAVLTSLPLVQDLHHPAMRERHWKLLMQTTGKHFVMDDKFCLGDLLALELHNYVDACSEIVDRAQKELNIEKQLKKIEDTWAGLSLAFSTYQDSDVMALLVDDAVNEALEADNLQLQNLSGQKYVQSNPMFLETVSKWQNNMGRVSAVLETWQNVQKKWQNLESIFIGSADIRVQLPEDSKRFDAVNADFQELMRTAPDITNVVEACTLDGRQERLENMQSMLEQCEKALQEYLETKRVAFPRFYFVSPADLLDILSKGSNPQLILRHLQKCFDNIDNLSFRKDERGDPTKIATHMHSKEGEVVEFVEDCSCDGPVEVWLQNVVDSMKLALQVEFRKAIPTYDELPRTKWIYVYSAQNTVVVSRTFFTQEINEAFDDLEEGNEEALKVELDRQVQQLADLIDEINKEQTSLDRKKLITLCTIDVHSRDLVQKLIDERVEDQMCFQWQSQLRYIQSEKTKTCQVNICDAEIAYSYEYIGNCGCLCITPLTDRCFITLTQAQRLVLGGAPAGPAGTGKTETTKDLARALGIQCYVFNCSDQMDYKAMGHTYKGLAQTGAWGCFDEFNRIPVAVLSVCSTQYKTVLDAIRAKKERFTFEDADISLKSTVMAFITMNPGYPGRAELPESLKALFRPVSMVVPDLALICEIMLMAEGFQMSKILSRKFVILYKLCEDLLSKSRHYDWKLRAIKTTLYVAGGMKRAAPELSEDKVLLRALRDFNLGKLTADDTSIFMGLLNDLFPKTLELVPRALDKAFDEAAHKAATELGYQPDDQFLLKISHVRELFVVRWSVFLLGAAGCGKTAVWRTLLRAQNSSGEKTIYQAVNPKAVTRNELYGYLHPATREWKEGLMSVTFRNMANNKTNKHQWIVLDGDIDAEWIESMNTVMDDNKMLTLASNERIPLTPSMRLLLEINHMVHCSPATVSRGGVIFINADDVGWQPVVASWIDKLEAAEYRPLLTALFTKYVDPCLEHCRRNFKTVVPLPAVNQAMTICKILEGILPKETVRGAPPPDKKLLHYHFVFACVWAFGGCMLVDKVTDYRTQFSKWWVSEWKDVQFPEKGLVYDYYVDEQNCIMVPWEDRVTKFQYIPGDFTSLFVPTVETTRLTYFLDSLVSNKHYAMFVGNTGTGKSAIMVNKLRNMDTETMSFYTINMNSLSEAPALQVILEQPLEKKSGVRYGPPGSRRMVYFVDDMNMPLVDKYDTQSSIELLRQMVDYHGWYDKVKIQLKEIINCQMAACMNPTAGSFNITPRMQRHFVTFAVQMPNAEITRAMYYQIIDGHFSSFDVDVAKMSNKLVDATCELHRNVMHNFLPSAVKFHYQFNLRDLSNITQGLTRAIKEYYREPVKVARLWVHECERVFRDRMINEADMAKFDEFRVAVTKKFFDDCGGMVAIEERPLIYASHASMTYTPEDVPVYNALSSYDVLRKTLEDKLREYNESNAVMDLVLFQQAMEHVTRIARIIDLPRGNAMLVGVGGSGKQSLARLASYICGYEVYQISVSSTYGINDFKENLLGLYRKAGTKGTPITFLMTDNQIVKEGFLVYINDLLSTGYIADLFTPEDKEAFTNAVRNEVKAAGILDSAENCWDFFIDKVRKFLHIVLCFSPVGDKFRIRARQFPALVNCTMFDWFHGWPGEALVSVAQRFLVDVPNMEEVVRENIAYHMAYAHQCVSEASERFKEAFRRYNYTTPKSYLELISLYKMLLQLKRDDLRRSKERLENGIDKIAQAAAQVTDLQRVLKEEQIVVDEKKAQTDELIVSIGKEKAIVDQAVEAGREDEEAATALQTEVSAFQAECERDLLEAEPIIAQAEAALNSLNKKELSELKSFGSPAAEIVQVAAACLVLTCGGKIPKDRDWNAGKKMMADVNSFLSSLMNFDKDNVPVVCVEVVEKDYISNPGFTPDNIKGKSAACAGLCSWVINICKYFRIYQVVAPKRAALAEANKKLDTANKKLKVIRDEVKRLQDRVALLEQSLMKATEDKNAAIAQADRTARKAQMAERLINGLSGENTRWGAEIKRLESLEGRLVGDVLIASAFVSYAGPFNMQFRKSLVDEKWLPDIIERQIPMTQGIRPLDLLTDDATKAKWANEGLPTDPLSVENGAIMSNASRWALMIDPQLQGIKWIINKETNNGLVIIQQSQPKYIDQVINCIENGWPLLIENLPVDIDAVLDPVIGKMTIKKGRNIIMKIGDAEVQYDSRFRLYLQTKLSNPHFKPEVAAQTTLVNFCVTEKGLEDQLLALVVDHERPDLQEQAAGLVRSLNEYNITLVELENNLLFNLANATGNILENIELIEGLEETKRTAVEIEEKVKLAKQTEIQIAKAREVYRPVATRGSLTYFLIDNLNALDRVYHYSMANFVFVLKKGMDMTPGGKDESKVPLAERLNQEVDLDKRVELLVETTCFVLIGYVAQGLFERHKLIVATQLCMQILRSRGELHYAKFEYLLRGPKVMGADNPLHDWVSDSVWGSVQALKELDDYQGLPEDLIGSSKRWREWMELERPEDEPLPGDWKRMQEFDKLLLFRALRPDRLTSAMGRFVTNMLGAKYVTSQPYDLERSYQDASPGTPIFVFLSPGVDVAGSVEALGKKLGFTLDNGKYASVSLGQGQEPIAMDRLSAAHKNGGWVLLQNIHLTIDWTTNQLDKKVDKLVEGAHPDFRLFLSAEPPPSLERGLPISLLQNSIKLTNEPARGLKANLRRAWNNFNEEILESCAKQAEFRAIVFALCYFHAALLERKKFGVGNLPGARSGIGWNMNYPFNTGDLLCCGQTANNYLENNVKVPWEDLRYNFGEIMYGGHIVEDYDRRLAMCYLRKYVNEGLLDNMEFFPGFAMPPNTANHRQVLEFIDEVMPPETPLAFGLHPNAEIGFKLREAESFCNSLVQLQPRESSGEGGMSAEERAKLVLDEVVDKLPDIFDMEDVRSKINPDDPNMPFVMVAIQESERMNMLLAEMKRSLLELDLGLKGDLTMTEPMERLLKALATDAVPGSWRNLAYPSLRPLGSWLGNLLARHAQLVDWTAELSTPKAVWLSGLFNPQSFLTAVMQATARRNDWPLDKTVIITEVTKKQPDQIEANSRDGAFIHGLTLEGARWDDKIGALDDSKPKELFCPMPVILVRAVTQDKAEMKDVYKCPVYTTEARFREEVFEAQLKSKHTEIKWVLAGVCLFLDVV

As to “Chlamydomonas axonemal microtubules from SIRT2-deacetylated tubulin (complex)”, in test [1], the L0 of microtubule gliding (microtubule length at vmax/2) worked out at 0.39 μm and the vmax of microtubule gliding on dynein-coated slides (fit to Eq. 1) came to 1.66 μm/s.

In test [1], “Chlamydomonas axonemal microtubules, untreated (complex)” displayed an L0 of microtubule gliding (microtubule length at vmax/2) of 0.43 μm and a vmax of microtubule gliding on dynein-coated slides (fit to Eq. 1) of 2.09 μm/s. In turn, “porcine brain microtubules, untreated (α-β-tubulin microtubules) (from UniProt P02550 1-451; P02554 1-445) (complex)” showed a vmax of microtubule gliding on dynein-coated slides (fit to Eq. 1) in test [2] of 1.7 μm/s. On the same count and under the same terms, as for “α-βs-tubulin porcine microtubules (10 μg/mL subtilisin) (from UniProt P02550 1-451) (complex)”, the figure is 1.93 μm/s; as for “αs-βs-tubulin porcine microtubules (200 μg/mL subtilisin) (complex)”, 2.27 μm/s.

The values above are taken from PMC4808650.
